# Data: PMC3299919
# Target: Nucleocapsid protein N (Rift Valley fever virus (strain M12)) (UniProt P21700)
# Assay: FP competition
# Conditions: 10 mM HEPES pH 7.3 ([…]) or pH 8 ([…]
# UniProt P21700, sequence (P21700 whole entry): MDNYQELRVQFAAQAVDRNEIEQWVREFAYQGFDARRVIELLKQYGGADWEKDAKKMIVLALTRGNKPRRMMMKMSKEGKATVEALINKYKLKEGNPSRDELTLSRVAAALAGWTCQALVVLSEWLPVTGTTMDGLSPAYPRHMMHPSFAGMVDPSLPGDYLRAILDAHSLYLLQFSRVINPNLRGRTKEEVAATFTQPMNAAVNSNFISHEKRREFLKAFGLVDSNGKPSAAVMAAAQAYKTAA
sequence,measurement,value
CGUCCCGUAGUGUCGGUACUGAUUGAUGUG [MBE15.3],Ki,200 nM
